No end group written: not given here.
Legend:
human RXFP4 [1] = target: T1, human RXFP4 (Homo sapiens, UniProt Q8TDU9); assay: Receptor binding assay, competition with NanoLuc-conjugated R3/I5 tracer; details: for pIC50 RXFP4: HEK293T cells transiently overexpressing human RXFP4, 0.5 nM NanoLuc-conjugated R3/I5 tracer, 21 °C, 2 h, mean ± SE, n = 3, SEM
T1 construct: expressed in transfected cells; host or cells: HEK293T
Description: (§1) Figure 3 Receptor binding activities of the mature INSL5 and R3/I5 mutants towards RXFP3 and RXFP4. A NanoLuc-conjugated R3/I5 peptide was used as tracer and HEK293T cells transiently overexpressing human RXFP3 or human RXFP4 were used as receptor source. The tracer concentration used in these assays was 0.5 nM. The nonspecific binding was obtained by competition with 1.0 μM of relaxin-3. The measured data were expressed as mean ± SE (n = 3) and fitted to sigmoidal curves using the software SigmaPlot 10.0.
(§2) The receptor binding assays of the mature INSL5 and R3/I5 mutants were carried out using a NanoLuc-conjugated R3/I5 peptide as tracer and the human embryonic kidney (HEK) 293T cells transiently overexpressing human RXFP3 or human RXFP4 as receptor source. Nonspecific binding was obtained by competition with 1.0 μM of human relaxin-3. Briefly, HEK293T cells were transiently transfected with the expression construct of human RXFP3 or human RXFP4. Next day, the transfected cells were trypsinised, seeded into a 96-well plate, and continuously cultured for 24–36 h to confluence. To start binding assay, the medium was removed and the binding solution (serum-free DMEM medium plus 1% bovine serum albumin) containing 0.5 nM of the NanoLuc-conjugated R3/I5 tracer and varied concentrations of competitor was added (100 μl/well). After incubation at 21 °C for 2 h, the binding solution was removed and the cells were washed twice by ice-cold phosphate-buffered saline (200 μl/well for each wash). Thereafter, the cells were lysed by lysis solution (100 μl/well, from Promega, Madison, WI, USA) and the cell lysate was transferred to a white opaque 96-well plate (50 μl/well). After mixing with the freshly diluted substrate (50 μl/well), bioluminescence was immediately measured on a SpectraMax M5 plate reader (Molecular Devices, Sunnyvale, CA, USA) using the luminescence mode. The measured bioluminescence data were expressed as mean ± SE (n = 3) and fitted to sigmoidal curves using the SigmaPlot10.0 software.

human RXFP3 [2] = target: T2, human RXFP3 (Homo sapiens, UniProt Q9NSD7); assay: as above; details: HEK293T cells transiently overexpressing human RXFP3; 0.5 nM NanoLuc-conjugated R3/I5 tracer; 21 °C, 2 h; mean ± SE, n = 3; SEM
T2 construct: expressed in transfected cells; host or cells: HEK293T
T2 sequence (Q9NSD7 1-469): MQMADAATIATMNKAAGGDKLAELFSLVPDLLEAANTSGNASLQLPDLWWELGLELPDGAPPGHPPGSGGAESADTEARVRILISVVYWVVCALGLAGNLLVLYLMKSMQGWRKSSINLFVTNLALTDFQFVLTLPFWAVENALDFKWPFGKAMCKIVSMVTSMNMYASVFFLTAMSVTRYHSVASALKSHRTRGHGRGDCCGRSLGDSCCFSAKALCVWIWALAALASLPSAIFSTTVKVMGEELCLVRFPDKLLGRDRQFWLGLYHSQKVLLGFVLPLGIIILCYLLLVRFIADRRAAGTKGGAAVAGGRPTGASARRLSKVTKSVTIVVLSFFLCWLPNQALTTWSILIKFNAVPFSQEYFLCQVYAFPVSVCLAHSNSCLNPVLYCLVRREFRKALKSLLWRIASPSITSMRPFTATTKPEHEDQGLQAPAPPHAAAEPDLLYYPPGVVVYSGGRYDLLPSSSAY
Description: as §1, §2

human RXFP4 [3] = target: T1, human RXFP4; assay: Receptor activation assay, CRE-controlled NanoLuc reporter; type: cell-based; details: HEK293T cells cotransfected with human RXFP4 and CRE-controlled NanoLuc reporter; 1.0 μM forskolin; 37 °C, 4 h; mean ± SE, n = 3; SEM
Description: (§3) Figure 4 Receptor activation activities of the mature INSL5 and R3/I5 mutants towards RXFP3 and RXFP4. HEK293T cells transiently cotransfected by human RXFP3 or human RXFP4 and a CRE-controlled NanoLuc reporter were used for the activation assays. The measured data were expressed as mean ± SE (n = 3) and fitted to sigmoidal or linear curves using the software SigmaPlot 10.0.
(§4) The receptor activation assays of the mature INSL5 and R3/I5 mutants were carried out using a cAMP-response element (CRE)-controlled NanoLuc reporter according to our previous procedure. Briefly, HEK293T cells were transiently cotransfected with the expression construct of human RXFP3 or human RXFP4 and the CRE-controlled NanoLuc reporter vector pNL1.2/CRE. Next day, the transfected cells were trypsinised, seeded into a 96-well plate, and continuously cultured for 24–36 h to ~90% confluence. To start activation assay, the medium was removed and the activation solution (serum-free DMEM medium plus 1% bovine serum albumin) containing 1.0 μM of forskolin and varied concentrations of peptide was added (100 μl/well). After being continuously cultured at 37 °C for 4 h, the activation solution was removed and the cells were lysed by lysis solution (100 μl/well, from Promega). The cell lysate was then transferred to a white opaque 96-well plate (50 μl/well), mixed with the freshly diluted substrate (50 μl/well), and bioluminescence was immediately measured on a SpectraMax M5 plate reader (Molecular Devices) using the luminescence mode. The measured bioluminescence data were expressed as mean ± SE (n = 3) and fitted to sigmoidal or linear curves using the SigmaPlot10.0 software.

human RXFP3 [4] = target: T2, human RXFP3; assay: as above; type: cell-based
Description: as §3, §4

T1 sequence (Q8TDU9 whole entry): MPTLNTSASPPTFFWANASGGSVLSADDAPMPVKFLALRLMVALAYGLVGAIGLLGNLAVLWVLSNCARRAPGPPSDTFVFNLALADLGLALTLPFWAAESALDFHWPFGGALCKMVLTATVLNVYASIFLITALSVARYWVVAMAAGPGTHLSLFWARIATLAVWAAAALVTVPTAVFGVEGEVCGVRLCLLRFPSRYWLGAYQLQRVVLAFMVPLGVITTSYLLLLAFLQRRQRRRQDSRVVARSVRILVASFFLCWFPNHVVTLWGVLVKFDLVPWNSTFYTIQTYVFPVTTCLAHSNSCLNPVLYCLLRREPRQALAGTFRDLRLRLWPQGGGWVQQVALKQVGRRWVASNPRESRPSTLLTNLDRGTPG

Molecule | pIC50 RXFP4 (human RXFP4 [1]) | pIC50 RXFP3 (human RXFP3 [2]) | pEC50 RXFP4 (human RXFP4 [3]) | further results
[R(B12)L,F(B20)Y,G(B23)A,G(B24)S]R3/I5: recombinant mature two-chain R3/I5 mutant (chain 1 RAAPYGVRLCGLEFIRAVIYTCASSRW; chain 2 QDLQTLCCTDGCSMTDLSALC; disulfide (positions not given here); not fully specified; also: A-chain N-terminal pyroglutamate likely) | 7.75 ± 0.05 | 8.40 ± 0.04 |  | 
[Y(B5)E,R(B12)L,F(B20)Y,G(B23)A,G(B24)S]R3/I5: recombinant mature two-chain R3/I5 mutant (chain 1 RAAPEGVRLCGLEFIRAVIYTCASSRW; chain 2 QDLQTLCCTDGCSMTDLSALC; disulfide (positions not given here); not fully specified; also: A-chain N-terminal pyroglutamate likely) | 7.61 ± 0.05 | 8.11 ± 0.02 | 8.24 ± 0.05 | 
CC[C@H](C)[C@@H]1NC(=O)[C@H](Cc2ccc(O)cc2)NC(=O)[C@H]([C@@H](C)CC)NC(=O)[C@H](C(C)C)NC(=O)[C@H]([C@@H](C)O)NC(=O)[C@H](CCCNC(=N)N)NC(=O)[C@H]([C@@H](C)CC)NC(=O)[C@H](Cc2ccc(O)cc2)NC(=O)[C@H](CCC(=O)O)NC(=O)[C@H](CCCNC(=N)N)NC(=O)CNC(=O)[C@@H](NC(=O)[C@H](CC(C)C)NC(=O)[C@H](CCCNC(=N)N)NC(=O)[C@@H](NC(=O)[C@H](CO)NC(=O)[C@H](CCC(=O)O)NC(=O)[C@@H](N)CCCCN)C(C)C)CSSC[C@@H]2NC(=O)[C@@H](NC(=O)[C@H](CC(C)C)NC(=O)[C@@H](NC(=O)[C@H](CCC(N)=O)NC(=O)[C@H](CC(C)C)NC(=O)[C@H](CC(=O)O)NC(=O)[C@@H](N)CCC(N)=O)[C@@H](C)O)CSSC[C@H](NC(=O)CNC(=O)[C@H](CC(=O)O)NC(=O)[C@H]([C@@H](C)O)NC2=O)C(=O)N[C@@H](CO)C(=O)N[C@@H](CCSC)C(=O)N[C@@H]([C@@H](C)O)C(=O)N[C@@H](CC(=O)O)C(=O)N[C@@H](CC(C)C)C(=O)N[C@@H](CO)C(=O)N[C@@H](C)C(=O)N[C@@H](CC(C)C)C(=O)N[C@H](C(=O)O)CSSC[C@@H](C(=O)NCC(=O)NCC(=O)N[C@@H](CO)C(=O)N[C@@H](CCCNC(=N)N)C(=O)N[C@@H](Cc2c[nH]c3ccccc23)C(=O)O)NC1=O [[L(B9)R,A(B20)G,S(B21)G]INSL5] |  |  |  | fold lower binding potency towards RXFP4 compared with wild-type INSL5 (human RXFP4 [1]; lower than wild-type INSL5): ~ 6 fold
CC[C@H](C)[C@@H]1NC(=O)[C@H](Cc2ccccc2)NC(=O)[C@H]([C@@H](C)CC)NC(=O)[C@H](C(C)C)NC(=O)[C@H]([C@@H](C)O)NC(=O)[C@H](CCCNC(=N)N)NC(=O)[C@H]([C@@H](C)CC)NC(=O)[C@H](Cc2ccc(O)cc2)NC(=O)[C@H](CCC(=O)O)NC(=O)[C@H](CCCNC(=N)N)NC(=O)CNC(=O)[C@@H](NC(=O)[C@H](CC(C)C)NC(=O)[C@H](CCCNC(=N)N)NC(=O)[C@@H](NC(=O)[C@H](CO)NC(=O)[C@H](Cc2ccc(O)cc2)NC(=O)[C@@H](N)CCCCN)C(C)C)CSSC[C@@H]2NC(=O)[C@@H](NC(=O)[C@H](CC(C)C)NC(=O)[C@@H](NC(=O)[C@H](CCC(N)=O)NC(=O)[C@H](CC(C)C)NC(=O)[C@H](CC(=O)O)NC(=O)[C@@H](N)CCC(N)=O)[C@@H](C)O)CSSC[C@H](NC(=O)CNC(=O)[C@H](CC(=O)O)NC(=O)[C@H]([C@@H](C)O)NC2=O)C(=O)N[C@@H](CO)C(=O)N[C@@H](CCSC)C(=O)N[C@@H]([C@@H](C)O)C(=O)N[C@@H](CC(=O)O)C(=O)N[C@@H](CC(C)C)C(=O)N[C@@H](CO)C(=O)N[C@@H](C)C(=O)N[C@@H](CC(C)C)C(=O)N[C@H](C(=O)O)CSSC[C@@H](C(=O)NCC(=O)NCC(=O)N[C@@H](CO)C(=O)N[C@@H](CCCNC(=N)N)C(=O)N[C@@H](Cc2c[nH]c3ccccc23)C(=O)O)NC1=O |  |  |  | fold higher activation potency towards RXFP3 than its parent mutant (human RXFP3 [4]; higher than the 4-mutation INSL5): ~ 5 fold; fold lower activation potency towards RXFP3 than relaxin-3 (human RXFP3 [4]; lower than relaxin-3): ~ 20 fold
[R(B12)L,F(B20)Y,G(B23)A,G(B24)S]R3/I5: recombinant mature two-chain R3/I5 mutant (chain 1 RAAPYGVRLCGLEFIRAVIYTCASSRW; chain 2 QDLQTLCCTDGCSMTDLSALC; not fully specified; two-chain, three disulfides; A-chain N-terminal pyroglutamate likely; possible unprinted extra residues as in m2) |  |  | 8.71 ± 0.06 | 
[R(B12)L,G(B23)A,G(B24)S]R3/I5: recombinant mature two-chain R3/I5 mutant (chain 1 RAAPYGVRLCGLEFIRAVIFTCASSRW; chain 2 QDLQTLCCTDGCSMTDLSALC; disulfide (positions not given here); not fully specified; also: A-chain N-terminal pyroglutamate likely) | 7.83 ± 0.04 | 8.38 ± 0.03 | 8.16 ± 0.04 | 
[F(B20)Y,G(B23)A,G(B24)S]R3/I5: recombinant mature two-chain R3/I5 mutant (chain 1 RAAPYGVRLCGREFIRAVIYTCASSRW; chain 2 QDLQTLCCTDGCSMTDLSALC; disulfide (positions not given here); not fully specified; also: A-chain N-terminal pyroglutamate likely) | 7.91 ± 0.02 | 8.45 ± 0.04 | 9.02 ± 0.05 | 
[G(B23)A,G(B24)S]R3/I5: recombinant mature two-chain R3/I5 mutant (chain 1 RAAPYGVRLCGREFIRAVIFTCASSRW; chain 2 QDLQTLCCTDGCSMTDLSALC; not fully specified; two-chain, three disulfides; A-chain N-terminal pyroglutamate likely; possible unprinted extra residues as in m2) |  |  | 8.44 ± 0.04 | 
[G(B23)A,G(B24)S]R3/I5: recombinant mature two-chain R3/I5 mutant (chain 1 RAAPYGVRLCGREFIRAVIFTCASSRW; chain 2 QDLQTLCCTDGCSMTDLSALC; disulfide (positions not given here); not fully specified; also: A-chain N-terminal pyroglutamate likely) | 8.06 ± 0.04 | 8.61 ± 0.03 |  | 
